Tests used:
[1] = molecular target: human 4-1BB on the reporter cell strain HEK293F-h4-1BB-NFkB (human) (UniProt Q07011); assay: cell-based or functional assay
[2] = molecular target: human 4-1BB His protein (Sinobiological, Beijing #10041-H08H) (human) (UniProt Q07011); assay: capture ELISA, antibody captured, biotinylated 4-1BB-his
Sequence of human 4-1BB His protein (Sinobiological, Beijing #10041-H08H) (human) (Q07011 24-186 limits assumed): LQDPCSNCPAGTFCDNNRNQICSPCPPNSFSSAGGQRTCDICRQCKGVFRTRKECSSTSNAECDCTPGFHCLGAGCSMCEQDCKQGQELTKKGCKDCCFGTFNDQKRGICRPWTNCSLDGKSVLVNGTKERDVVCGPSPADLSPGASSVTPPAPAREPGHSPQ

Sequence of human 4-1BB on the reporter cell strain HEK293F-h4-1BB-NFkB (human) (Q07011 24-255): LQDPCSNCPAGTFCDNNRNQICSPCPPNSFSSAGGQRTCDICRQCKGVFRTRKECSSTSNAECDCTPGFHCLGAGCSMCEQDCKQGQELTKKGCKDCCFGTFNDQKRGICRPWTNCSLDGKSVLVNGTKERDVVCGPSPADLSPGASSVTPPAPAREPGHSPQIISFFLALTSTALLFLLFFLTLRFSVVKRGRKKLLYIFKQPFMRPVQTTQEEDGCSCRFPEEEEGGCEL
Sequence of Urelumab (BMS) (antibody) (VH): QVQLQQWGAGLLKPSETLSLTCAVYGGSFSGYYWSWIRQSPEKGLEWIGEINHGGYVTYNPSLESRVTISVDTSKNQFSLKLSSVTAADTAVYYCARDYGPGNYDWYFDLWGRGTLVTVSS
Sequence of Urelumab (BMS) (antibody) (VL): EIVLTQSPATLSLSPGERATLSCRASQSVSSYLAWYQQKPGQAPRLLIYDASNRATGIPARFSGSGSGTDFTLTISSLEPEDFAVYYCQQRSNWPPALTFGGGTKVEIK

| luciferase activity (antibody at 10 nM) [1] | EC50 [2] [µg/mL] | Substance |
| --- | --- | --- |
| 1000 |  | MOR7480 (Pfizer) (antibody) |
| 290 |  | hIgG (antibody) |
| 2190 | 0.192 | Urelumab (BMS) (antibody) |
